The source of these data is publication PMC5943054.

The assay has as its target TgPLP1 MACPF domain (residues 462 to 809, N720Q/N744Q), trypsinized in situ (TMH2 cut away) (Toxoplasma gondii) (UniProt V5BCL0). As to the kind of experiment: crystal structure; second crystal form of the trypsinized MACPF domain, about 5 Å (5.0 in text, 5.11 in Table 1); 0.1 M Hepes pH 7.5, 10% alcohol mixture, 15% PEG-1000, 15% PEG-3350, 15% MPD; ring assembly, rigid-body refinement only.

On to “TgPLP1 MACPF domain (residues 462 to 809, N720Q/N744Q), trypsinized in situ (TMH2 cut away) (from UniProt V5BCL0 462-809) (domain or fragment)”, for which the stoichiometry N is 6.
